Biological target: the molecule itself
Assay: Western blot, HEK 293T-orf6 cells (self-association into a homotetramer)
Protocol: To assess ALDH2 tetramer formation from AAVrh.10hALDH2 directed expression of the human ALDH2 protein in vitro, HEK 293T cells were infected with the AAVrh.10hALDH2 vector or a control AAVrh.10-hα1 AT vector, and supernatant was harvested 72 hours later. Human ALDH2 tetramer formation in supernatant was evaluated by SDS-PAGE and Western analysis with an anti-HA antibody.

B1: human ALDH2 with C-terminal hemagglutinin (HA) tag, expressed from the AAVrh.10hALDH2 vector (enzyme)
chain: SAAATQAVPAPNQQPEVFCNQIFINNEWHDAVSRKTFPTVNPSTGEVICQVAEGDKEDVDKAVKAARAAFQLGSPWRRMDASHRGRLLNRLADLIERDRTYLAALETLDNGKPYVISYLVDLDMVLKCLRYYAGWADKYHGKTIPIDGDFFSYTRHEPVGVCGQIIPWNFPLLMQAWKLGPALATGNVVVMKVAEQTPLTALYVANLIKEAGFPPGVVNIVPGFGPTAGAAIASHEDVDKVAFTGSTEIGRVIQVAAGSSNLKRVTLELGGKSPNIIMSDADMDWAVEQAHFALFFNQGQCCCAGSRTFVQEDIYDEFVERSVARAKSRVVGNPFDSKTEQGPQVDETQFKKILGYINTGKQEGAKLLCGGGIAADRGYFIQPTVFGDVQDGMTIAKEEIFGPVMQILKFKTIEEVVGRANNSTYGLAAAVFTKDLDKANYLSQALQAGTVWVNCYDVFGAQSPFGGYKMSGSGRELGEYGLQAYTEVKTVTVKVPQKNS
notes: also called human aldehyde dehydrogenase 2; hALDH2-HA; not shown: C-terminal hemagglutinin (HA) tag
B1: binds.
